Test results taken from patent US20240400638A1, “COMBINATION OF RELAXIN AND VASOPRESSIN ANALOGUES FOR TREATMENT OF RENAL DISORDERS OR CONDITIONS” (River 2 Renal Corp., priority 2021, published 2024).
Numbered stars: 1 amine (or outer) side, 2 acyl side, 3 side chain; on linkers, the order of the positions; unused ones are H or OH. Square brackets hold non-standard residues; d marks the D form. Side chains are listed from the residue outwards. * marks the point of attachment. TTDS = 4-[3-[2-[2-(3-aminopropoxy)ethoxy]ethoxy]propylamino]-4-oxo-butanoyl; γGlu = O=C(O)[C@H](CCC(=O)[*:2])N[*:1]; Stearoyl = CCCCCCCCCCCCCCCCCC(=O)*; Palmitoyl = CCCCCCCCCCCCCCCC(=O)*; αMeK = C[C@](N)(CCCCN)C(=O)O; hLys = NCCCCC[C@H](N)C(=O)O; AEEA = NCCOCCOCC(=O)O; Aib = CC(C)(N)C(=O)O

B1: Relaxin peptide analogue of SEQ ID NO: 31 (peptide)
peptide: Ac-LEGRERVRAK(Ac)I[Aib][Aib]EGK([TTDS-TTDS-TTDS-γGlu-γGlu-γGlu-Palmitoyl])STWS[Aib]RRK(Ac)-NH2
B2: Relaxin peptide analogue of SEQ ID NO: 30 (peptide)
peptide: Ac-LEGREKVRAK(Ac)I[Aib][Aib]EGK([TTDS-TTDS-TTDS-γGlu-γGlu-γGlu-Stearoyl])STWS[αMeK]RAK(Ac)-NH2
B3: Relaxin peptide analogue of SEQ ID NO: 29 (peptide)
peptide: Ac-LEGREKVR[Aib]K(Ac)I[Aib][Aib]EGK([TTDS-TTDS-TTDS-γGlu-γGlu-γGlu-Palmitoyl])STFS[αMeK]RAK(Ac)-NH2
B4: Relaxin peptide analogue of SEQ ID NO: 3 (peptide)
peptide: Ac-LEGREKVRAK(Ac)I[Aib][Aib]EGK([TTDS-TTDS-TTDS-γGlu-γGlu-γGlu-Palmitoyl])STFS[αMeK]RAK(Ac)-NH2
B5: Relaxin peptide analogue of SEQ ID NO: 28 (peptide)
peptide: Ac-LEGRE[hLys]VRAK(Ac)I[Aib][Aib]EGK([TTDS-TTDS-TTDS-γGlu-γGlu-γGlu-Palmitoyl])STFS[αMeK]RAK(Ac)-NH2
B6: Relaxin peptide analogue of SEQ ID NO: 21 (peptide)
peptide: Ac-LEGREKVRAK(Ac)I[Aib][Aib]EGK([AEEA-AEEA-AEEA-AEEA-γGlu-γGlu-γGlu-Stearoyl])STWS[Aib]RKK(Ac)-NH2
SMILES: CCCCCCCCCCCCCCCCCC(=O)N[C@@H](CCC(=O)N[C@@H](CCC(=O)N[C@@H](CCC(=O)NCCOCCOCC(=O)NCCOCCOCC(=O)NCCOCCOCC(=O)NCCOCCOCC(=O)NCCCC[C@H](NC(=O)CNC(=O)[C@H](CCC(=O)O)NC(=O)C(C)(C)NC(=O)C(C)(C)NC(=O)[C@@H](NC(=O)[C@H](CCCCNC(C)=O)NC(=O)[C@H](C)NC(=O)[C@H](CCCNC(=N)N)NC(=O)[C@@H](NC(=O)[C@H](CCCCN)NC(=O)[C@H](CCC(=O)O)NC(=O)[C@H](CCCNC(=N)N)NC(=O)CNC(=O)[C@H](CCC(=O)O)NC(=O)[C@H](CC(C)C)NC(C)=O)C(C)C)[C@@H](C)CC)C(=O)N[C@@H](CO)C(=O)N[C@H](C(=O)N[C@@H](Cc1c[nH]c2ccccc12)C(=O)N[C@@H](CO)C(=O)NC(C)(C)C(=O)N[C@@H](CCCNC(=N)N)C(=O)N[C@@H](CCCCN)C(=O)N[C@@H](CCCCNC(C)=O)C(N)=O)[C@@H](C)O)C(=O)O)C(=O)O)C(=O)O
B7: Relaxin peptide analogue of SEQ ID NO: 24 (peptide)
peptide: Ac-LEGREFVRAK(Ac)I[Aib][Aib]EGK([TTDS-TTDS-TTDS-γGlu-γGlu-γGlu-Palmitoyl])STFS[αMeK]RAK(Ac)-NH2
B8: Relaxin peptide analogue of SEQ ID NO: 15 (peptide)
peptide: Ac-LEGREKVRAK(Ac)I[Aib][Aib]EGK([TTDS-TTDS-TTDS-γGlu-γGlu-γGlu-Palmitoyl])STF[Aib]KRAK(Ac)-NH2
B9: Relaxin peptide analogue of SEQ ID NO: 17 (peptide)
peptide: Ac-LEGREKVRAK(Ac)I[Aib][Aib]EGK([TTDS-TTDS-γGlu-γGlu-γGlu-Palmitoyl])STWS[dK]RAK(Ac)-NH2
B10: Relaxin peptide analogue of SEQ ID NO: 22 (peptide)
peptide: LEGREKVRAKIXXEGKSTFSKRAK
modifications: Ac-L-E-G-R-E-K-V-R-A-K(Ac)-I-Aib-Aib-E-G-K(PEG2DGA-PEG2DGA-PEG2DGA-gE-gE-gE-Palm)-S-T-F-S-Mly-R-A-K(Ac)-NH2
B11: Relaxin peptide analogue of SEQ ID NO: 18 (peptide)
peptide: Ac-LEGREKVRAK(Ac)I[Aib][Aib]EGK([TTDS-TTDS-γGlu-γGlu-γGlu-Palmitoyl])STWS[dK]RKK(Ac)-NH2
B12: Relaxin peptide analogue of SEQ ID NO: 16 (peptide)
peptide: Ac-LEGREKVRAK(Ac)I[Aib][Aib]EGK([TTDS-TTDS-γGlu-γGlu-γGlu-Palmitoyl])STFS[dK]RAK(Ac)-NH2
B13: Relaxin peptide analogue of SEQ ID NO: 32 (peptide)
peptide: LEGREKVRAKIXXEGKSTFSKRAK
modifications: Ac-L-E-G-R-E-K-V-R-A-K(Ac)-I-Aib-Aib-E-G-K(PEG2DGA-PEG2DGA-PEG2DGA-gE-gE-gE-Stea)-S-T-F-S-Mly-R-A-K(Ac)-NH2
B14: Relaxin peptide analogue of SEQ ID NO: 23 (peptide)
peptide: Ac-LEGRELVRAK(Ac)I[Aib][Aib]EGK([TTDS-TTDS-TTDS-γGlu-γGlu-γGlu-Palmitoyl])STFS[αMeK]RAK(Ac)-NH2
B15: Relaxin peptide analogue of SEQ ID NO: 27 (peptide)
peptide: Ac-LEGRERVRAK(Ac)I[Aib][Aib]EGK([TTDS-TTDS-TTDS-γGlu-γGlu-γGlu-Palmitoyl])STFS[αMeK]RAK(Ac)-NH2
B16: Relaxin peptide analogue of SEQ ID NO: 20 (peptide)
peptide: Ac-LEGREKVRAK(Ac)I[Aib][Aib]EGK([TTDS-TTDS-TTDS-γGlu-γGlu-γGlu-Stearoyl])STWS[Aib]RKK(Ac)-NH2
B17: Relaxin peptide analogue of SEQ ID NO: 2 (peptide)
peptide: Ac-LEGREKVRAK(Ac)I[Aib][Aib]EGK([TTDS-TTDS-TTDS-γGlu-γGlu-γGlu-Palmitoyl])STFS[Aib]RAK(Ac)-NH2
B18: Relaxin peptide analogue of SEQ ID NO: 26 (peptide)
peptide: Ac-LEGREKVRAK(Ac)I[Aib][Aib]EGK([AEEA-AEEA-AEEA-AEEA-γGlu-γGlu-γGlu-Stearoyl])STFS[αMeK]RAK(Ac)-NH2
SMILES: CCCCCCCCCCCCCCCCCC(=O)N[C@@H](CCC(=O)N[C@@H](CCC(=O)N[C@@H](CCC(=O)NCCOCCOCC(=O)NCCOCCOCC(=O)NCCOCCOCC(=O)NCCOCCOCC(=O)NCCCC[C@H](NC(=O)CNC(=O)[C@H](CCC(=O)O)NC(=O)C(C)(C)NC(=O)C(C)(C)NC(=O)[C@@H](NC(=O)[C@H](CCCCNC(C)=O)NC(=O)[C@H](C)NC(=O)[C@H](CCCNC(=N)N)NC(=O)[C@@H](NC(=O)[C@H](CCCCN)NC(=O)[C@H](CCC(=O)O)NC(=O)[C@H](CCCNC(=N)N)NC(=O)CNC(=O)[C@H](CCC(=O)O)NC(=O)[C@H](CC(C)C)NC(C)=O)C(C)C)[C@@H](C)CC)C(=O)N[C@@H](CO)C(=O)N[C@H](C(=O)N[C@@H](Cc1ccccc1)C(=O)N[C@@H](CO)C(=O)N[C@@](C)(CCCCN)C(=O)N[C@@H](CCCNC(=N)N)C(=O)N[C@@H](C)C(=O)N[C@@H](CCCCNC(C)=O)C(N)=O)[C@@H](C)O)C(=O)O)C(=O)O)C(=O)O
B19: Relaxin peptide analogue of SEQ ID NO: 19 (peptide)
peptide: Ac-LEGREKVRAK(Ac)I[Aib][Aib]EGK([AEEA-AEEA-AEEA-γGlu-γGlu-γGlu-Palmitoyl])STWS[Aib]RKK(Ac)-NH2
SMILES: CCCCCCCCCCCCCCCC(=O)N[C@@H](CCC(=O)N[C@@H](CCC(=O)N[C@@H](CCC(=O)NCCOCCOCC(=O)NCCOCCOCC(=O)NCCOCCOCC(=O)NCCCC[C@H](NC(=O)CNC(=O)[C@H](CCC(=O)O)NC(=O)C(C)(C)NC(=O)C(C)(C)NC(=O)[C@@H](NC(=O)[C@H](CCCCNC(C)=O)NC(=O)[C@H](C)NC(=O)[C@H](CCCNC(=N)N)NC(=O)[C@@H](NC(=O)[C@H](CCCCN)NC(=O)[C@H](CCC(=O)O)NC(=O)[C@H](CCCNC(=N)N)NC(=O)CNC(=O)[C@H](CCC(=O)O)NC(=O)[C@H](CC(C)C)NC(C)=O)C(C)C)[C@@H](C)CC)C(=O)N[C@@H](CO)C(=O)N[C@H](C(=O)N[C@@H](Cc1c[nH]c2ccccc12)C(=O)N[C@@H](CO)C(=O)NC(C)(C)C(=O)N[C@@H](CCCNC(=N)N)C(=O)N[C@@H](CCCCN)C(=O)N[C@@H](CCCCNC(C)=O)C(N)=O)[C@@H](C)O)C(=O)O)C(=O)O)C(=O)O
B20: Relaxin peptide analogue of SEQ ID NO: 25 (peptide)
peptide: Ac-LEGREQVRAK(Ac)I[Aib][Aib]EGK([TTDS-TTDS-TTDS-γGlu-γGlu-γGlu-Palmitoyl])STFS[αMeK]RAK(Ac)-NH2

Target: T1, human RXFP1 (human, UniProt Q9HBX9 1-757)
T1 sequence (looked up): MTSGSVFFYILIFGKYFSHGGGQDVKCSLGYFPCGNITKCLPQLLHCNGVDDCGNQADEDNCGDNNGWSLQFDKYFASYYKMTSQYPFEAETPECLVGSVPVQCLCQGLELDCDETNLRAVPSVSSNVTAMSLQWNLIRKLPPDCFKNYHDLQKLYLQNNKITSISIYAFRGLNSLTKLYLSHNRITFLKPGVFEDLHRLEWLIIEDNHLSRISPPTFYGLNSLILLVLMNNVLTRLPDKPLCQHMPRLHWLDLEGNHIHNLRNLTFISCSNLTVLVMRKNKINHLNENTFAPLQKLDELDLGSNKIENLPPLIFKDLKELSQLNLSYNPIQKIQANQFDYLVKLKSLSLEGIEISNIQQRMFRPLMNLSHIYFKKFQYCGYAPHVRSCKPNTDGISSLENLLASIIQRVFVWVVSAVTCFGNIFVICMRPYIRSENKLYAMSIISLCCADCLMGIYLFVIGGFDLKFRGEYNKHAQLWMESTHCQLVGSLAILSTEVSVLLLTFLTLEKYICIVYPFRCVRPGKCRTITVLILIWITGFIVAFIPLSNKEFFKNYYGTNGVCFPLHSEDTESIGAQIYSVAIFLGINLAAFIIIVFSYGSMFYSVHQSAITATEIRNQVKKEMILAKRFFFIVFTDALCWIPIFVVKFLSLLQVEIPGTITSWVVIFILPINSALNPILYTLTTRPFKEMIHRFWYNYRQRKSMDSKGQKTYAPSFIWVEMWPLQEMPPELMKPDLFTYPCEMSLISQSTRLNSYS
Test: cell-based or functional assay

| Binder | EC50 (nM), OVCAR 5 cells (cAMP) [nM] | EMax, OVCAR 5 cells (cAMP) [%] |
| --- | --- | --- |
| B1 | 0.19 | 94 |
| B2 | 0.21 | 89 |
| B3 | 1.6 | 88 |
| B4 | 0.34 | 97 |
| B5 | 0.62 | 88 |
| B6 | 0.65 | 93 |
| B7 | 36.4 | 100 |
| B8 | 2.1 | 85 |
| B9 | 4.6 | 91 |
| B10 | 1 | 92 |
| B11 | 1.54 | 92 |
| B12 | 6.8 | 88 |
| B13 | 0.1 | 97 |
| B14 | 11.1 | 92 |
| B15 | 1.8 | 98 |
| B16 | 0.15 | 96 |
| B17 | 2.4 | 99 |
| B18 | 0.43 | 96 |
| B19 | 11.5 | 94 |
| B20 | 28.7 | 100 |
